The record followed here is the supplement of paper PMC5998384.

In series [1] the test system is HeLa Kyoto. Nature of the series: solubility change mitosis vs G1/S (difference of NP-40 vs SDS log2 ratios) (log2 ratio difference); higher = more soluble in mitosis.
Series [2] has as its system HeLa Kyoto. Nature of the series: melting temperature (median over replicates), in situ; higher = more thermally stable.
The subject of series [3] is HeLa Kyoto. Briefly: solubility in G1/S (NP-40 vs SDS abundance) (log2 ratio); higher = more soluble. The note with it: cell cycle stage: G1/S.
The test system of series [4] is HeLa Kyoto. Nature of the series: thermal stability score vs G1/S (z-score of summed log2 fold changes over temperatures); higher = more thermally stable than in G1/S.
[5] abbreviates: cell cycle stage: early G1 (4.5 h after nocodazole release).
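Throughout, for melting temperature (median over replicates), in situ: HeLa Kyoto cells synchronized by double thymidine or nocodazole block, proteins quantified by TMT10plex mass spectrometry, three independent biological replicates.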
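Throughout, for solubility change mitosis vs G1/S (difference of NP-40 vs SDS log2 ratios): synchronized HeLa Kyoto cells (double thymidine block for G1/S, nocodazole release for mitosis), protein amounts in NP-40 versus SDS lysates quantified by mass spectrometry, three biological replicates.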
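Throughout, for solubility in G1/S (NP-40 vs SDS abundance): HeLa Kyoto cells arrested at G1/S by double thymidine block, proteins quantified by TMT10plex mass spectrometry in mild NP-40 versus SDS extracts, three biological replicates.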
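Throughout, for thermal stability score vs G1/S (z-score of summed log2 fold changes over temperatures): synchronized HeLa Kyoto cells, proteins quantified by TMT10plex mass spectrometry, three biological replicates, mitosis taken 0.5 h after nocodazole release, G1/S directly after double thymidine block.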

Chain of MSI2 (chain, as listed by the source): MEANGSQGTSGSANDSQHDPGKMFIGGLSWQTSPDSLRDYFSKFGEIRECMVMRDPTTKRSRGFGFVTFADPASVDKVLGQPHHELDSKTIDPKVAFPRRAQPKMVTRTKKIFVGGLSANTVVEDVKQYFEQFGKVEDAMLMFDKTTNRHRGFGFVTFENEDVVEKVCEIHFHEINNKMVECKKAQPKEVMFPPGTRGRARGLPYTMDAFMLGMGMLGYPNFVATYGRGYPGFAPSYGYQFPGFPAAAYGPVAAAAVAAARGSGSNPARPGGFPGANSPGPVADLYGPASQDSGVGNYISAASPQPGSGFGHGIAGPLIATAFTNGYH

As to “MSHLPMKLLRKKIEKRNLKLRQRNLKFQGASNLTLSETQNGDVSEETMGSRKVKKSKQKPMNVGLSETQNGGMSQEAVGNIKVTKSPQKSTVLTNGEAAMQSSNSESKKKKKKKRKMVNDAEPDTKKAKTENKGKSEEESAETTKETENNVEKPDNDEDESEVPSLPLGLTGAFEDTSFASLCNLVNENTLKAIKEMGFTNMTEIQHKSIRPLLEGRDLLAAAKTGSGKTLAFLIPAVELIVKLRFMPRNGTGVLILSPTRELAMQTFGVLKELMTHHVHTYGLIMGGSNRSAEAQKLGNGINIIVATPGRLLDHMQNTPGFMYKNLQCLVIDEADRILDVGFEEELKQIIKLLPTRRQTMLFSATQTRKVEDLARISLKKEPLYVGVDDDKANATVDGLEQGYVVCPSEKRFLLLFTFLKKNRKKKLMVFFSSCMSVKYHYELLNYIDLPVLAIHGKQKQNKRTTTFFQFCNADSGTLLCTDVAARGLDIPEVDWIVQYDPPDDPKEYIHRVGRTARGLNGRGHALLILRPEELGFLRYLKQSKVPLSEFDFSWSKISDIQSQLEKLIEKNYFLHKSAQEAYKSYIRAYDSHSLKQIFNVNNLNLPQVALSFGFKVPPFVDLNVNSNEGKQKKRGGGGGFGYQKTKKVEKSKIFKHISKKSSDSRQFSH [DDX18]”, the “solubility change mitosis (log2)” value in the series with HeLa Kyoto [1] was 1.1. In addition, the values for the melting temperature in the series with HeLa Kyoto [2] (cell cycle stage: G1/S) and in the series on HeLa Kyoto [2] (cell cycle stage: mitosis) were 51 °C and 52 °C, respectively. The “solubility in G1/S (log2)” value in the series with HeLa Kyoto [3] was -2.49. Also, the thermal stability score in the series on HeLa Kyoto [4] (setting [5]) is 1.68; with HeLa Kyoto [4] (cell cycle stage: mitosis) it was 1.02.
As to “MSHVAVENALGLDQQFAGLDLNSSDNQSGGSTASKGRYIPPHLRNREATKGFYDKDSSGWSSSKDKDAYSSFGSRSDSRGKSSFFSDRGSGSRGRFDDRGRSDYDGIGSRGDRSGFGKFERGGNSRWCDKSDEDDWSKPLPPSERLEQELFSGGNTGINFEKYDDIPVEATGNNCPPHIESFSDVEMGEIIMGNIELTRYTRPTPVQKHAIPIIKEKRDLMACAQTGSGKTAAFLLPILSQIYSDGPGEALRAMKENGRYGRRKQYPISLVLAPTRELAVQIYEEARKFSYRSRVRPCVVYGGADIGQQIRDLERGCHLLVATPGRLVDMMERGKIGLDFCKYLVLDEADRMLDMGFEPQIRRIVEQDTMPPKGVRHTMMFSATFPKEIQMLARDFLDEYIFLAVGRVGSTSENITQKVVWVEESDKRSFLLDLLNATGKDSLTLVFVETKKGADSLEDFLYHEGYACTSIHGDRSQRDREEALHQFRSGKSPILVATAVAARGLDISNVKHVINFDLPSDIEEYVHRIGRTGRVGNLGLATSFFNERNINITKDLLDLLVEAKQEVPSWLENMAYEHHYKGSSRGRSKSSRFSGGFGARDYRQSSGASSSSFSSSRASSSRSGGGGHGSSRGFGGGGYGGFYNSDGYGGNYNSQGVDWWGN [DDX3X]”, the “solubility change mitosis (log2)” value in the series with HeLa Kyoto [1] was determined as 0.197. In addition, the melting temperature with HeLa Kyoto [2] (cell cycle stage: G1/S) and with HeLa Kyoto [2] (cell cycle stage: mitosis) was 47.4 °C in each case. For the same substance, in the series with HeLa Kyoto [3], the “solubility in G1/S (log2)” value is -0.457. Also, the figures for the thermal stability score in the series with HeLa Kyoto [4] (setting [5]) and in the series on HeLa Kyoto [4] (cell cycle stage: mitosis) were -0.877 and 2.82, respectively.
With MSI2, the “solubility change mitosis (log2)” value in the series on HeLa Kyoto [1] is 0.0111. Further, the melting temperature came to 51 °C in the series with HeLa Kyoto [2] (cell cycle stage: G1/S) and 50.8 °C in the series on HeLa Kyoto [2] (cell cycle stage: mitosis). In addition, the “solubility in G1/S (log2)” value in the series on HeLa Kyoto [3] came to 0.473. The thermal stability score in the series with HeLa Kyoto [4] (setting [5]) was -0.0604; in the series with HeLa Kyoto [4] (cell cycle stage: mitosis) it was -1.64.
As to “MSIFTPTNQIRLTNVAVVRMKRAGKRFEIACYKNKVVGWRSGVEKDLDEVLQTHSVFVNVSKGQVAKKEDLISAFGTDDQTEICKQILTKGEVQVSDKERHTQLEQMFRDIATIVADKCVNPETKRPYTVILIERAMKDIHYSVKTNKSTKQQALEVIKQLKEKMKIERAHMRLRFILPVNEGKKLKEKLKPLIKVIESEDYGQQLEIVCLIDPGCFREIDELIKKETKGKGSLEVLNLKDVEEGDEKFE [SBDS]”, in the series on HeLa Kyoto [1], the “solubility change mitosis (log2)” value was -0.0695. In addition, the figures for the melting temperature in the series on HeLa Kyoto [2] (cell cycle stage: G1/S) and in the series with HeLa Kyoto [2] (cell cycle stage: mitosis) were 50.4 °C and 50.2 °C, respectively. For the same substance, the “solubility in G1/S (log2)” value in the series on HeLa Kyoto [3] is -0.0131. Moreover, the figures for the thermal stability score with HeLa Kyoto [4] (setting [5]) and in the series on HeLa Kyoto [4] (cell cycle stage: mitosis) were 1.75 and 2.97, respectively.
For “MSKPPPKPVKPGQVKVFRALYTFEPRTPDELYFEEGDIIYITDMSDTNWWKGTSKGRTGLIPSNYVAEQAESIDNPLHEAAKRGNLSWLRECLDNRVGVNGLDKAGSTALYWACHGGHKDIVEMLFTQPNIELNQQNKLGDTALHAAAWKGYADIVQLLLAKGARTDLRNIEKKLAFDMATNAACASLLKKKQGTDAVRTLSNAEDYLDDEDSD [OSTF1]”, in the series on HeLa Kyoto [1], the “solubility change mitosis (log2)” value is -0.158. In addition, the melting temperature in the series on HeLa Kyoto [2] (cell cycle stage: G1/S) was 49.3 °C; in the series with HeLa Kyoto [2] (cell cycle stage: mitosis) it was 50.7 °C. For the same substance, the “solubility in G1/S (log2)” value with HeLa Kyoto [3] turned out to be 0.545. Besides, the thermal stability score with HeLa Kyoto [4] (setting [5]) is -0.239; in the series on HeLa Kyoto [4] (cell cycle stage: mitosis), 0.339.
As for “MSKSFQQSSLSRDSQGHGRDLSAAGIGLLAAATQSLSMPASLGRMNQGTARLASLMNLGMSSSLNQQGAHSALSSASTSSHNLQSIFNIGSRGPLPLSSQHRGDADQASNILASFGLSARDLDELSRYPEDKITPENLPQILLQLKRRRTEEGPTLSYGRDGRSATREPPYRVPRDDWEEKRHFRRDSFDDRGPSLNPVLDYDHGSRSQESGYYDRMDYEDDRLRDGERCRDDSFFGETSHNYHKFDSEYERMGRGPGPLQERSLFEKKRGAPPSSNIEDFHGLLPKGYPHLCSICDLPVHSNKEWSQHINGASHSRRCQLLLEIYPEWNPDNDTGHTMGDPFMLQQSTNPAPGILGPPPPSFHLGGPAVGPRGNLGAGNGNLQGPRHMQKGRVETSRVVHIMDFQRGKNLRYQLLQLVEPFGVISNHLILNKINEAFIEMATTEDAQAAVDYYTTTPALVFGKPVRVHLSQKYKRIKKPEGKPDQKFDQKQELGRVIHLSNLPHSGYSDSAVLKLAEPYGKIKNYILMRMKSQAFIEMETREDAMAMVDHCLKKALWFQGRCVKVDLSEKYKKLVLRIPNRGIDLLKKDKSRKRSYSPDGKESPSDKKSKTDGSQKTESSTEGKEQEEKSGEDGEKDTKDDQTEQEPNMLLESEDELLVDEEEAAALLESGSSVGDETDLANLGDVASDGKKEPSDKAVKKDGSASAAAKKKLKKVDKIEELDQENEAALENGIKNEENTEPGAESSENADDPNKDTSENADGQSDENKDDYTIPDEYRIGPYQPNVPVGIDYVIPKTGFYCKLCSLFYTNEEVAKNTHCSSLPHYQKLKKFLNKLAEERRQKKET [MATR3]”, the “solubility change mitosis (log2)” value with HeLa Kyoto [1] is 0.223. For the same substance, the melting temperature came out at 45.7 °C in the series with HeLa Kyoto [2] (cell cycle stage: G1/S) and 48.2 °C in the series with HeLa Kyoto [2] (cell cycle stage: mitosis). In the series on HeLa Kyoto [3], the “solubility in G1/S (log2)” value was -0.173. Moreover, the thermal stability score in the series on HeLa Kyoto [4] (setting [5]) came to 9.67; with HeLa Kyoto [4] (cell cycle stage: mitosis), 19.4.
